Measured values taken from publication PMC9482650, “Quantitative fragmentomics allow affinity mapping of interactomes” (Nature Communications, 2022).

T1: APBA3_1, O96018
T1 sequence (O96018 389-490, limits assumed, looked up): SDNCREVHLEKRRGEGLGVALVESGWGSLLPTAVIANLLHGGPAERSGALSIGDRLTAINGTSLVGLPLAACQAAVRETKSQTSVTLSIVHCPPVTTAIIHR

T2: CARD11, Q9BXL7
T2 sequence (Q9BXL7 662-765, limits assumed, looked up): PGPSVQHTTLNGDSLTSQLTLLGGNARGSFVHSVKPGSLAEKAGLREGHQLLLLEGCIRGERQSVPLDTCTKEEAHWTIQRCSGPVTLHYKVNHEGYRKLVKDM

T3: TJP3_3, O95049
T3 sequence (O95049 375-456, limits assumed, looked up): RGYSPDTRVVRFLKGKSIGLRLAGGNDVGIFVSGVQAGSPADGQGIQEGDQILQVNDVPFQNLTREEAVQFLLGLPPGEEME

T4: MPP6, Q9NZW5
T4 sequence (Q9NZW5 125-219, limits assumed, looked up): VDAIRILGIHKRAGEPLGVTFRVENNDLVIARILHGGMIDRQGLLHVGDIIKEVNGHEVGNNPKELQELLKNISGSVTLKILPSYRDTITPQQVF

T5: FRMPD1, Q5SYB0
T5 sequence (Q5SYB0 52-145, limits assumed, looked up): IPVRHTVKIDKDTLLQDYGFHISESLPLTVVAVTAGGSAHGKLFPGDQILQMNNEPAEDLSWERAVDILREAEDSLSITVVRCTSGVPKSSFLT

T6: ARHGEF11, O15085
T6 sequence (O15085 42-136, limits assumed, looked up): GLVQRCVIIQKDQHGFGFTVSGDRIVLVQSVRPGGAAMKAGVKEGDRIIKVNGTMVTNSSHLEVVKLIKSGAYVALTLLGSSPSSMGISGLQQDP

T7: APBA2_1, Q99767
T7 sequence (Q99767 563-664, limits assumed, looked up): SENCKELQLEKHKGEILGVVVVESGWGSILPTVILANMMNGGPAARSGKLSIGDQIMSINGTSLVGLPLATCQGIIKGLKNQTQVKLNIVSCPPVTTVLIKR

T8: PDZD7_3, Q9H5P4
T8 sequence (Q9H5P4 857-944, limits assumed, looked up): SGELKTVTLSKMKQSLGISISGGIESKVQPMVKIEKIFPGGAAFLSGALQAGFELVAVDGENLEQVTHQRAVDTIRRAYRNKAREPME

T9: SNTA1, Q13424
T9 sequence (Q13424 82-180, limits assumed, looked up): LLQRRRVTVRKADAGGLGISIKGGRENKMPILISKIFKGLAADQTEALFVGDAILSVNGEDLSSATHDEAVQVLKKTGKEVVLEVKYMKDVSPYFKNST

T10: HTRA3, P83110
T10 sequence (P83110 354-453, limits assumed, looked up): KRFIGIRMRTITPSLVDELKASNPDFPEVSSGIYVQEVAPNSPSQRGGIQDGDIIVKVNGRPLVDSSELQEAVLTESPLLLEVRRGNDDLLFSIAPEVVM

T11: NHERF3_4, Q5T2W1
T11 sequence (Q5T2W1 373-468, limits assumed, looked up): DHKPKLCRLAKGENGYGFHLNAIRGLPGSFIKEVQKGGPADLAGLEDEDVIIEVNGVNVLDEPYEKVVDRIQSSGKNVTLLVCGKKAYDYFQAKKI

T12: RHPN1, Q8TCX5
T12 sequence (Q8TCX5 508-602, limits assumed, looked up): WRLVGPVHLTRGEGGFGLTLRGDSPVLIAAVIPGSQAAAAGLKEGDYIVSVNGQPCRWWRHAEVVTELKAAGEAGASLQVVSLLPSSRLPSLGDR

T13: MPP7, Q5T2T1
T13 sequence (Q5T2T1 134-230, limits assumed, looked up): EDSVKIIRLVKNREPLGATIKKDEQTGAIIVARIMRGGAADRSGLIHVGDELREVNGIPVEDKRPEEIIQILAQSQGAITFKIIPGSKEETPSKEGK

T14: SNTG1, Q9NSN8
T14 sequence (Q9NSN8 52-150, limits assumed, looked up): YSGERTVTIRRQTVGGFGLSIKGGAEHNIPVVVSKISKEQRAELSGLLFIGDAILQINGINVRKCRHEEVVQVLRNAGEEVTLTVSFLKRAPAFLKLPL

T15: TX1BP3, O14907
T15 sequence (O14907 10-122, limits assumed, looked up): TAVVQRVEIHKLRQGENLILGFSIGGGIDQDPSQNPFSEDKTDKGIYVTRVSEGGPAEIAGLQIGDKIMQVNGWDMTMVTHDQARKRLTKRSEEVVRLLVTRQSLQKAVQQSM

B1: CLDN4, O14493 (peptide)
chain: ARSAAASNYV
B2: KCNJ18, B7U540 (peptide)
chain: QRPYRRGSEI
B3: KCNJ4, P48050 (peptide)
chain: NISYRRESAI

What follows are binders tested against T1, APBA3_1, O96018 (assay: holdup assay). Conditions: plain residues with an end cap or a label only (N-terminal biotin on a linker: ado-ado).
Parameters: key: below the threshold = too weak to quantify, mostly under pKd 3.1 to 4

| Binder | pKd |
| --- | --- |
| B1 | below the threshold |
| B2 | below the threshold |
| B3 | below the threshold |

Each binder was assayed against T2, CARD11, Q9BXL7 (assay: holdup assay). Conditions: plain residues with an end cap or a label only (N-terminal biotin on a linker: ado-ado).
Parameters: key: below the threshold = too weak to quantify, mostly under pKd 3.1 to 4

| Binder | pKd |
| --- | --- |
| B1 | below the threshold |
| B2 | below the threshold |
| B3 | below the threshold |

These binders were tested against T3, TJP3_3, O95049 (assay: holdup assay). Conditions: plain residues with an end cap or a label only (N-terminal biotin on a linker: ado-ado).
Parameters: key: below the threshold = too weak to quantify, mostly under pKd 3.1 to 4

| Binder | pKd |
| --- | --- |
| B1 | 3.65 |
| B2 | below the threshold |
| B3 | below the threshold |

What follows are binders tested against TJP1_2, Q07157 (assay: holdup assay). Conditions: plain residues with an end cap or a label only (N-terminal biotin on a linker: ado-ado).
Sequence of TJP1_2, Q07157 (Q07157 181-274): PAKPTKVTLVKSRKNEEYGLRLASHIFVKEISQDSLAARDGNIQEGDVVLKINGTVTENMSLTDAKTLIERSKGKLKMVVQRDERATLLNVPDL
Parameters: key: below the threshold = too weak to quantify, mostly under pKd 3.1 to 4

| Binder | pKd |
| --- | --- |
| B1 | below the threshold |
| B2 | below the threshold |
| B3 | below the threshold |

What follows are binders tested against T4, MPP6, Q9NZW5 (assay: holdup assay). Conditions: plain residues with an end cap or a label only (N-terminal biotin on a linker: ado-ado).
Parameters: key: below the threshold = too weak to quantify, mostly under pKd 3.1 to 4

| Binder | pKd |
| --- | --- |
| B1 | below the threshold |
| B2 | below the threshold |
| B3 | below the threshold |

The binders below were run against T5, FRMPD1, Q5SYB0 (assay: holdup assay). Conditions: plain residues with an end cap or a label only (N-terminal biotin on a linker: ado-ado).
Parameters: key: below the threshold = too weak to quantify, mostly under pKd 3.1 to 4

| Binder | pKd |
| --- | --- |
| B1 | below the threshold |
| B2 | below the threshold |
| B3 | below the threshold |

Each binder was assayed against T6, ARHGEF11, O15085 (assay: holdup assay). Conditions: plain residues with an end cap or a label only (N-terminal biotin on a linker: ado-ado).
Parameters: key: below the threshold = too weak to quantify, mostly under pKd 3.1 to 4

| Binder | pKd |
| --- | --- |
| B1 | 3.8 |
| B2 | below the threshold |
| B3 | below the threshold |

The binders below were run against T7, APBA2_1, Q99767 (assay: holdup assay). Conditions: plain residues with an end cap or a label only (N-terminal biotin on a linker: ado-ado).
Parameters: key: below the threshold = too weak to quantify, mostly under pKd 3.1 to 4

| Binder | pKd |
| --- | --- |
| B1 | below the threshold |
| B2 | below the threshold |
| B3 | below the threshold |

The binders below were run against T8, PDZD7_3, Q9H5P4 (assay: holdup assay). Conditions: plain residues with an end cap or a label only (N-terminal biotin on a linker: ado-ado).
Parameters: key: below the threshold = too weak to quantify, mostly under pKd 3.1 to 4

| Binder | pKd |
| --- | --- |
| B1 | below the threshold |
| B2 | below the threshold |
| B3 | 4.05 |

Each binder was assayed against T9, SNTA1, Q13424 (assay: holdup assay). Conditions: plain residues with an end cap or a label only (N-terminal biotin on a linker: ado-ado).
Parameters: key: below the threshold = too weak to quantify, mostly under pKd 3.1 to 4

| Binder | pKd |
| --- | --- |
| B1 | 3.63 |
| B2 | below the threshold |
| B3 | below the threshold |

The binders below were run against T10, HTRA3, P83110 (assay: holdup assay). Conditions: plain residues with an end cap or a label only (N-terminal biotin on a linker: ado-ado).
Parameters: key: below the threshold = too weak to quantify, mostly under pKd 3.1 to 4

| Binder | pKd |
| --- | --- |
| B1 | 4.15 |
| B2 | 3.58 |
| B3 | below the threshold |

These binders were tested against CASK, O14936 (assay: holdup assay). Conditions: plain residues with an end cap or a label only (N-terminal biotin on a linker: ado-ado).
Sequence of CASK, O14936 (O14936 487-570): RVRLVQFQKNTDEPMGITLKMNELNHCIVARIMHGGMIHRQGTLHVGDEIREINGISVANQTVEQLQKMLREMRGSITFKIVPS
Parameters: key: below the threshold = too weak to quantify, mostly under pKd 3.1 to 4

| Binder | pKd |
| --- | --- |
| B1 | below the threshold |
| B2 | below the threshold |
| B3 | below the threshold |

What follows are binders tested against T11, NHERF3_4, Q5T2W1 (assay: holdup assay). Conditions: plain residues with an end cap or a label only (N-terminal biotin on a linker: ado-ado).
Parameters: key: below the threshold = too weak to quantify, mostly under pKd 3.1 to 4

| Binder | pKd |
| --- | --- |
| B1 | below the threshold |
| B2 | below the threshold |
| B3 | below the threshold |

These binders were tested against GRIP2_7, Q9C0E4 (assay: holdup assay). Conditions: plain residues with an end cap or a label only (N-terminal biotin on a linker: ado-ado).
Sequence of GRIP2_7, Q9C0E4 (Q9C0E4 934-1023): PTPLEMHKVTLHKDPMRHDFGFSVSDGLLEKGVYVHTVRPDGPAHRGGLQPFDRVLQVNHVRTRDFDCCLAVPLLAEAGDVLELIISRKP
Parameters: key: below the threshold = too weak to quantify, mostly under pKd 3.1 to 4

| Binder | pKd |
| --- | --- |
| B1 | below the threshold |
| B2 | below the threshold |
| B3 | below the threshold |

What follows are binders tested against FRMPD2_1, Q68DX3 (assay: holdup assay). Conditions: plain residues with an end cap or a label only (N-terminal biotin on a linker: ado-ado).
Sequence of FRMPD2_1, Q68DX3 (Q68DX3 770-861): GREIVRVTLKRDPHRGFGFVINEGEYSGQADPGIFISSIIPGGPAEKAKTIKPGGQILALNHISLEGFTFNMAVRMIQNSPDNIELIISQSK
Parameters: key: below the threshold = too weak to quantify, mostly under pKd 3.1 to 4

| Binder | pKd |
| --- | --- |
| B1 | below the threshold |
| B2 | below the threshold |
| B3 | below the threshold |

What follows are binders tested against T12, RHPN1, Q8TCX5 (assay: holdup assay). Conditions: plain residues with an end cap or a label only (N-terminal biotin on a linker: ado-ado).
Parameters: key: below the threshold = too weak to quantify, mostly under pKd 3.1 to 4

| Binder | pKd |
| --- | --- |
| B1 | below the threshold |
| B2 | 3.75 |
| B3 | below the threshold |

What follows are binders tested against MAGI1_1, Q96QZ7 (assay: holdup assay). Conditions: plain residues with an end cap or a label only (N-terminal biotin on a linker: ado-ado).
Sequence of MAGI1_1, Q96QZ7 (Q96QZ7 1-106): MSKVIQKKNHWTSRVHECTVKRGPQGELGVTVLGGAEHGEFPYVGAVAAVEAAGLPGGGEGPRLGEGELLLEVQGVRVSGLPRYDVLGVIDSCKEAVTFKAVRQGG
Parameters: key: below the threshold = too weak to quantify, mostly under pKd 3.1 to 4

| Binder | pKd |
| --- | --- |
| B1 | below the threshold |
| B2 | below the threshold |
| B3 | below the threshold |

Each binder was assayed against T13, MPP7, Q5T2T1 (assay: holdup assay). Conditions: plain residues with an end cap or a label only (N-terminal biotin on a linker: ado-ado).
Parameters: key: below the threshold = too weak to quantify, mostly under pKd 3.1 to 4

| Binder | pKd |
| --- | --- |
| B1 | below the threshold |
| B2 | below the threshold |
| B3 | below the threshold |

What follows are binders tested against T14, SNTG1, Q9NSN8 (assay: holdup assay). Conditions: plain residues with an end cap or a label only (N-terminal biotin on a linker: ado-ado).
Parameters: key: below the threshold = too weak to quantify, mostly under pKd 3.1 to 4

| Binder | pKd |
| --- | --- |
| B1 | below the threshold |
| B2 | below the threshold |
| B3 | below the threshold |

What follows are binders tested against T15, TX1BP3, O14907 (assay: holdup assay). Conditions: plain residues with an end cap or a label only (N-terminal biotin on a linker: ado-ado).
Parameters: key: below the threshold = too weak to quantify, mostly under pKd 3.1 to 4

| Binder | pKd |
| --- | --- |
| B1 | below the threshold |
| B2 | below the threshold |
| B3 | 4.82 |

These binders were tested against GRIP2_4, Q9C0E4 (assay: holdup assay). Conditions: plain residues with an end cap or a label only (N-terminal biotin on a linker: ado-ado).
Sequence of GRIP2_4, Q9C0E4 (Q9C0E4 446-548): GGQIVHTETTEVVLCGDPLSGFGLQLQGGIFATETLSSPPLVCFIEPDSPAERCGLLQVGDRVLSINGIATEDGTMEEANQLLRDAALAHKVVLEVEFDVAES
Parameters: key: below the threshold = too weak to quantify, mostly under pKd 3.1 to 4

| Binder | pKd |
| --- | --- |
| B1 | below the threshold |
| B2 | below the threshold |
| B3 | below the threshold |

What follows are binders tested against MAGI2_6, Q86UL8 (assay: holdup assay). Conditions: plain residues with an end cap or a label only (N-terminal biotin on a linker: ado-ado).
Sequence of MAGI2_6, Q86UL8 (Q86UL8 1141-1229): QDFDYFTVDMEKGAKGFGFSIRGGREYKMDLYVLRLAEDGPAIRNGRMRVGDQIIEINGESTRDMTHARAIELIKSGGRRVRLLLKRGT
Parameters: key: below the threshold = too weak to quantify, mostly under pKd 3.1 to 4

| Binder | pKd |
| --- | --- |
| B1 | below the threshold |
| B2 | below the threshold |
| B3 | below the threshold |
